The record followed here is PMC4074165.

Common to all, as to assay: EMSA
(In general: Mobility shift assays separate free from complexed probe on a gel.)

Data set [1] has as its target T1, GST-HuR (UniProt Q15717 1-326).
In data set [2] the target is T1, GST-HuR. This is another data set of the same source.
For data set [3], the target named is T1, GST-HuR. This is another data set of the same source.
Data set [4] deals with T1, GST-HuR. This is another data set of the same source.

Changes are numbered by the printed parent chain. Read-outs that look alike come from different tables or passages of the source.

T1 sequence (Q15717 whole entry): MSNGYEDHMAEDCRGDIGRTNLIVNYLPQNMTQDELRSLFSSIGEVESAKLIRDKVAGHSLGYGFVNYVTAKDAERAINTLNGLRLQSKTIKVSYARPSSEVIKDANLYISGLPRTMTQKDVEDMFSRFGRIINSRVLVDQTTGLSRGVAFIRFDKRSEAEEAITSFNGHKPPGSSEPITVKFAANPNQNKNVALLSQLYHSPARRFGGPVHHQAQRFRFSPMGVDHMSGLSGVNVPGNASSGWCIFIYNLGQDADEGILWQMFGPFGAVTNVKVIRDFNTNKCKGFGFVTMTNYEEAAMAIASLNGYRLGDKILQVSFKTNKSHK

B1: P2-1 (ssRNA)
RNA: GGGCCUGUUUAGUUUUCAAGGAUGGAACUCCACCCUUUACUUGGUUUUAAGU
B1: the binding result in data set [1] is “no binding”.

B2: P1-1-mut2 (E2 U to C) (ssRNA)
RNA: GGGGAAAAGGGUUUAAACAGUUUGAAAUAUUCUGUCUUCAUUUCUGCAACAGCCA
For the molecule B2, the binding result in data set [2] is given as “no binding”.

B3: P1-1-mut3 (hinge U to C) (ssRNA)
RNA: GGGGAAAAGGGUUUAAACAGUUUGAAAUAUUCCGCCCCCACCCCCGUAAUAGUUA
On to B3, for which, in data set [3], the binding result was “binds”.

B4: P2-3 (ssRNA)
RNA: GGGAAAUGGUAGGGAGACAAAUAUACAUGUGAAAUAAACUCAGUAUUUUAAUAAAGU
Consider B4, for which the binding result in data set [1] is listed as “no binding”.

B5: P2-2 (ssRNA)
RNA: GGGAGUAUGUAUGGAAUGUUAUGAUAGGACAUAGUAAUAGUGGUCAGAUGUGGAAA
For B5, the binding result in data set [1] is “no binding”.

B6: P1-1-mut1 (E1 U to C) (ssRNA)
RNA: GGGGAAAAGGGUUUAAACAGCCCGAAACACCCUGUCUUCAUUUCUGUAAUAGUUA
As to B6, in data set [4], the binding result is “no binding”.

B7: P1-1 (ssRNA)
RNA: B2 RNA with C47U, C50U, C53U, C54U
For B7, the binding result in data set [1] was “binds”.

B8: P1-3 (ssRNA)
RNA: GGGUACUGUGUUUGAUAAAUGUUGUCCAGGUUCACUUGCCAAGAAUGUGUUGUCUAAAAUG
Take B8: in data set [1], the binding result is listed as “no binding”.

B9: P1-2 (ssRNA)
RNA: GGGAUAUCUGGCUGUCCUUUUUAUAAUGCAAAGUGAGAACUUUCCCUAC
With B9, in data set [1], the binding result is on record as “no binding”.
